*1 amine or outer side, *2 acyl side, *3 side chain or, on linkers, in order; H or OH if unused. The star is where a group is joined. C20 diacid = O=C(O)CCCCCCCCCCCCCCCCCCC(=O)*; C18 diacid = O=C(O)CCCCCCCCCCCCCCCCC(=O)*; γGlu = O=C(O)[C@H](CCC(=O)[*:2])N[*:1]
T1: human amylin-3(a) receptor (human, UniProt P30988 25-474; O60896 24-148)
T1 sequence (looked up) 1: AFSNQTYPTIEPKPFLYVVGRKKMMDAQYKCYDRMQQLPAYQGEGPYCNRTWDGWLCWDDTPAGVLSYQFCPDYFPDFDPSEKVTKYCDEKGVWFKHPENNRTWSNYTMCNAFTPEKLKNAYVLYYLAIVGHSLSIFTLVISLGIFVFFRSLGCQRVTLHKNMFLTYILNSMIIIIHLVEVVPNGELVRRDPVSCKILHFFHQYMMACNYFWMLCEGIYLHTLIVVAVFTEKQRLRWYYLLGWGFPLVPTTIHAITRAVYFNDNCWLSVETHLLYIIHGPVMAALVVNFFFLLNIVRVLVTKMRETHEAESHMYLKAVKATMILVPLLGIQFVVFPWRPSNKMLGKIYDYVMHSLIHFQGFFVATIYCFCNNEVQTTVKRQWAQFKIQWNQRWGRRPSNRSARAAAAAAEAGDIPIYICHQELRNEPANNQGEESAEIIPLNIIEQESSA
T1 sequence (looked up) 2: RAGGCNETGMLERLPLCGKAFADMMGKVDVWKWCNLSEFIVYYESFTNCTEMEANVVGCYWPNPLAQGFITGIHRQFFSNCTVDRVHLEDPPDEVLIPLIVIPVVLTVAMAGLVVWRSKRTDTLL

T2: human calcitonin receptor (a) (human, UniProt P30988 25-474)
T2 sequence (looked up): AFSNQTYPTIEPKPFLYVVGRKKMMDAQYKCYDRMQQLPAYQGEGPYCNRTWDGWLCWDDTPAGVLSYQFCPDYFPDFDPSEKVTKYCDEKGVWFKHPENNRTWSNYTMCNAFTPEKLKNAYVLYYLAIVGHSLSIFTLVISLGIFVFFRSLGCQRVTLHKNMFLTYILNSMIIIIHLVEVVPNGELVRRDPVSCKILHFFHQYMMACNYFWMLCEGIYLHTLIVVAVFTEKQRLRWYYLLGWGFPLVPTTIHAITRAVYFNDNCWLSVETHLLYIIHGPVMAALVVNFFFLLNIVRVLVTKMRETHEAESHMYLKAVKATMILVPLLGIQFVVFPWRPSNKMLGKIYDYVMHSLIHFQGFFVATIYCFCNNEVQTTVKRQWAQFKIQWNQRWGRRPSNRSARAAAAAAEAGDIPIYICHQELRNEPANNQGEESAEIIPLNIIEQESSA


How the values were obtained:
[1] = target: T1, human amylin-3(a) receptor; test: cell-based or functional assay
[2] = target: T2, human calcitonin receptor (a); test: cell-based or functional assay

hAmyR3 potency, EC50 (pM); CRE-luciferase reporter in BHK cells [1]	hCalcR potency, EC50 (pM); CRE-luciferase reporter in BHK cells [2]	Binder
1.12 pM	1.44 pM	{C20 diacid-γGlu}-ASHLSTAQTQRLAEFLHHFGPILPPTDVGSETP-NH2 (SMILES CC[C@H](C)[C@H](NC(=O)[C@@H]1CCCN1C(=O)CNC(=O)[C@H](Cc1ccccc1)NC(=O)[C@H](Cc1c[nH]cn1)NC(=O)[C@H](Cc1c[nH]cn1)NC(=O)[C@H](CC(C)C)NC(=O)[C@H](Cc1ccccc1)NC(=O)[C@H](CCC(=O)O)NC(=O)[C@H](C)NC(=O)[C@H](CC(C)C)NC(=O)[C@H](CCCNC(=N)N)NC(=O)[C@H](CCC(N)=O)NC(=O)[C@@H](NC(=O)[C@H](CCC(N)=O)NC(=O)[C@H](C)NC(=O)[C@@H](NC(=O)[C@H](CO)NC(=O)[C@H](CC(C)C)NC(=O)[C@H](Cc1c[nH]cn1)NC(=O)[C@H](CO)NC(=O)[C@H](C)NC(=O)CC[C@H](NC(=O)CCCCCCCCCCCCCCCCCCC(=O)O)C(=O)O)[C@@H](C)O)[C@@H](C)O)C(=O)N[C@@H](CC(C)C)C(=O)N1CCC[C@H]1C(=O)N1CCC[C@H]1C(=O)N[C@H](C(=O)N[C@@H](CC(=O)O)C(=O)N[C@H](C(=O)NCC(=O)N[C@@H](CO)C(=O)N[C@@H](CCC(=O)O)C(=O)N[C@H](C(=O)N1CCC[C@H]1C(N)=O)[C@@H](C)O)C(C)C)[C@@H](C)O)
2.37 pM	2.07 pM	{C18 diacid-γGlu-γGlu}-AGSLSTAQTQRLAEFLHHFGPILPPTDVGSETP-NH2 (SMILES CC[C@H](C)[C@H](NC(=O)[C@@H]1CCCN1C(=O)CNC(=O)[C@H](Cc1ccccc1)NC(=O)[C@H](Cc1c[nH]cn1)NC(=O)[C@H](Cc1c[nH]cn1)NC(=O)[C@H](CC(C)C)NC(=O)[C@H](Cc1ccccc1)NC(=O)[C@H](CCC(=O)O)NC(=O)[C@H](C)NC(=O)[C@H](CC(C)C)NC(=O)[C@H](CCCNC(=N)N)NC(=O)[C@H](CCC(N)=O)NC(=O)[C@@H](NC(=O)[C@H](CCC(N)=O)NC(=O)[C@H](C)NC(=O)[C@@H](NC(=O)[C@H](CO)NC(=O)[C@H](CC(C)C)NC(=O)[C@H](CO)NC(=O)CNC(=O)[C@H](C)NC(=O)CC[C@H](NC(=O)CC[C@H](NC(=O)CCCCCCCCCCCCCCCCC(=O)O)C(=O)O)C(=O)O)[C@@H](C)O)[C@@H](C)O)C(=O)N[C@@H](CC(C)C)C(=O)N1CCC[C@H]1C(=O)N1CCC[C@H]1C(=O)N[C@H](C(=O)N[C@@H](CC(=O)O)C(=O)N[C@H](C(=O)NCC(=O)N[C@@H](CO)C(=O)N[C@@H](CCC(=O)O)C(=O)N[C@H](C(=O)N1CCC[C@H]1C(N)=O)[C@@H](C)O)C(C)C)[C@@H](C)O)

Further lines, the binder ahead of its results:

Binder	hAmyR3 potency, EC50 (pM); CRE-luciferase reporter in BHK cells [1]	hCalcR potency, EC50 (pM); CRE-luciferase reporter in BHK cells [2]
{C18 diacid-γGlu}-ASHLSTAQTQRLAEFLHHSSEPFGAIPSSTEVGPETP-NH2 (SMILES CC[C@H](C)[C@H](NC(=O)[C@H](C)NC(=O)CNC(=O)[C@H](Cc1ccccc1)NC(=O)[C@@H]1CCCN1C(=O)[C@H](CCC(=O)O)NC(=O)[C@H](CO)NC(=O)[C@H](CO)NC(=O)[C@H](Cc1c[nH]cn1)NC(=O)[C@H](Cc1c[nH]cn1)NC(=O)[C@H](CC(C)C)NC(=O)[C@H](Cc1ccccc1)NC(=O)[C@H](CCC(=O)O)NC(=O)[C@H](C)NC(=O)[C@H](CC(C)C)NC(=O)[C@H](CCCNC(=N)N)NC(=O)[C@H](CCC(N)=O)NC(=O)[C@@H](NC(=O)[C@H](CCC(N)=O)NC(=O)[C@H](C)NC(=O)[C@@H](NC(=O)[C@H](CO)NC(=O)[C@H](CC(C)C)NC(=O)[C@H](Cc1c[nH]cn1)NC(=O)[C@H](CO)NC(=O)[C@H](C)NC(=O)CC[C@H](NC(=O)CCCCCCCCCCCCCCCCC(=O)O)C(=O)O)[C@@H](C)O)[C@@H](C)O)C(=O)N1CCC[C@H]1C(=O)N[C@@H](CO)C(=O)N[C@@H](CO)C(=O)N[C@H](C(=O)N[C@@H](CCC(=O)O)C(=O)N[C@H](C(=O)NCC(=O)N1CCC[C@H]1C(=O)N[C@@H](CCC(=O)O)C(=O)N[C@H](C(=O)N1CCC[C@H]1C(N)=O)[C@@H](C)O)C(C)C)[C@@H](C)O)	2.68 pM	1.78 pM
{C18 diacid-γGlu}-ASELSTAQTQRLAEFLHHFGPILPPTDVGSETP-NH2 (SMILES CC[C@H](C)[C@H](NC(=O)[C@@H]1CCCN1C(=O)CNC(=O)[C@H](Cc1ccccc1)NC(=O)[C@H](Cc1c[nH]cn1)NC(=O)[C@H](Cc1c[nH]cn1)NC(=O)[C@H](CC(C)C)NC(=O)[C@H](Cc1ccccc1)NC(=O)[C@H](CCC(=O)O)NC(=O)[C@H](C)NC(=O)[C@H](CC(C)C)NC(=O)[C@H](CCCNC(=N)N)NC(=O)[C@H](CCC(N)=O)NC(=O)[C@@H](NC(=O)[C@H](CCC(N)=O)NC(=O)[C@H](C)NC(=O)[C@@H](NC(=O)[C@H](CO)NC(=O)[C@H](CC(C)C)NC(=O)[C@H](CCC(=O)O)NC(=O)[C@H](CO)NC(=O)[C@H](C)NC(=O)CC[C@H](NC(=O)CCCCCCCCCCCCCCCCC(=O)O)C(=O)O)[C@@H](C)O)[C@@H](C)O)C(=O)N[C@@H](CC(C)C)C(=O)N1CCC[C@H]1C(=O)N1CCC[C@H]1C(=O)N[C@H](C(=O)N[C@@H](CC(=O)O)C(=O)N[C@H](C(=O)NCC(=O)N[C@@H](CO)C(=O)N[C@@H](CCC(=O)O)C(=O)N[C@H](C(=O)N1CCC[C@H]1C(N)=O)[C@@H](C)O)C(C)C)[C@@H](C)O)	5.2 pM	3.08 pM
{C18 diacid-γGlu}-ASHLSTAQTQRLAEFLHHFGPILPPTDVGSETP-NH2 (SMILES CC[C@H](C)[C@H](NC(=O)[C@@H]1CCCN1C(=O)CNC(=O)[C@H](Cc1ccccc1)NC(=O)[C@H](Cc1c[nH]cn1)NC(=O)[C@H](Cc1c[nH]cn1)NC(=O)[C@H](CC(C)C)NC(=O)[C@H](Cc1ccccc1)NC(=O)[C@H](CCC(=O)O)NC(=O)[C@H](C)NC(=O)[C@H](CC(C)C)NC(=O)[C@H](CCCNC(=N)N)NC(=O)[C@H](CCC(N)=O)NC(=O)[C@@H](NC(=O)[C@H](CCC(N)=O)NC(=O)[C@H](C)NC(=O)[C@@H](NC(=O)[C@H](CO)NC(=O)[C@H](CC(C)C)NC(=O)[C@H](Cc1c[nH]cn1)NC(=O)[C@H](CO)NC(=O)[C@H](C)NC(=O)CC[C@H](NC(=O)CCCCCCCCCCCCCCCCC(=O)O)C(=O)O)[C@@H](C)O)[C@@H](C)O)C(=O)N[C@@H](CC(C)C)C(=O)N1CCC[C@H]1C(=O)N1CCC[C@H]1C(=O)N[C@H](C(=O)N[C@@H](CC(=O)O)C(=O)N[C@H](C(=O)NCC(=O)N[C@@H](CO)C(=O)N[C@@H](CCC(=O)O)C(=O)N[C@H](C(=O)N1CCC[C@H]1C(N)=O)[C@@H](C)O)C(C)C)[C@@H](C)O)	2.06 pM	1.72 pM
